Assay results reported in patent US20240287172A1 (SCIRHOM, published 2024).

T1: miR2-FL-WT-T7 (mouse, UniProt Q80WQ6 1-827)
T1 construct: on MEF-DKO cells
T1 sequence: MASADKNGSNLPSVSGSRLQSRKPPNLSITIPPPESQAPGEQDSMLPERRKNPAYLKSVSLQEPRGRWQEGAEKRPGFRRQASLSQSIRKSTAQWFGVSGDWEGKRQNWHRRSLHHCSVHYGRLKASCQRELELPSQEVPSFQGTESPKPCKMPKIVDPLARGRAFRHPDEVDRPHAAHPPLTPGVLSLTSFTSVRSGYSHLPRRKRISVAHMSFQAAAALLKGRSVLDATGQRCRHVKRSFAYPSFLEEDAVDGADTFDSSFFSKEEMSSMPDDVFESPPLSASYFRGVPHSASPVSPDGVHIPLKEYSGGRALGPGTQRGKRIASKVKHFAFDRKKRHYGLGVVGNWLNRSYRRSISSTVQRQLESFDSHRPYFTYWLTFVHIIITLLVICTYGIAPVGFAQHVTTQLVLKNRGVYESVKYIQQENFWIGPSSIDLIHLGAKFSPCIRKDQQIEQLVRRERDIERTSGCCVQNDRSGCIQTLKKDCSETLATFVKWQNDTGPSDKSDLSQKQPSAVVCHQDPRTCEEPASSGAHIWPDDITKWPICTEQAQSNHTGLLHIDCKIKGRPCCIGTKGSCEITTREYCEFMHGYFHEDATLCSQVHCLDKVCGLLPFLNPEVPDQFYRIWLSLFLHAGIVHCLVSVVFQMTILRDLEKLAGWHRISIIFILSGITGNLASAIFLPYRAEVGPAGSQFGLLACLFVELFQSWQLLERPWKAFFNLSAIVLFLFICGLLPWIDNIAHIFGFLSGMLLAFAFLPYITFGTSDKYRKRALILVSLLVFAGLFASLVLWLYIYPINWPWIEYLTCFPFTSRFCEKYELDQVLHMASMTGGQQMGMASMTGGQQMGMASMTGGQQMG

B1: antibody 5 (antibody, V domains shown)
VH: QVTLKESGPGILQPSQTLSLTCSFSGFSLSTFGMGVGWIRQPSGKGLEWLAHIWWDDEKYYNSALKSRLTISKATSKNQAFLKIANVDTADTATYYCARISNYGSNYWYFNVWGTGTTVTVSS
VL: QVVLTQSPALMSASPGEKVTMTCSAGSSVSCMYWYQQKPGSSPRVLIYDTSNLASGVPARFTGSGSGTSYSLTISRMEAEDAASYYCQQWNSYPLTFGAGTKLELK
notes: mouse IgG, kappa light chain; also called clone #5; purified antibody 5
B2: antibody 42 (antibody, V domains shown)
VH: QVTLKESGPGILQPSQTLSLTCSLSGFSLSTFGRGVGWIRQPSGKGLEWLAHIWWDDEKYYNPALKSRLTISKDTSKNQVFLRIANVDTADTATYYCARIQNYGSNYWYFDVWGTGTTVTVSS
VL: LIVLTQSPAIMSASPGEKVTMTCGATSRISYMFWYQQKPGSSPRVLIYDTSNLASGVPVRFSGSGSGTSYSLTISRVEAEDVATYYCQQWNSYPLTFGAGTKLELK
notes: mouse IgG, kappa light chain; also called clone #42; purified antibody 42
B3: antibody 44 (antibody, V domains shown)
VH: QVTLKESGPGILQPSQTLSLTCSFSGFSLSTFGMGVGWIRQPSEKGLEWLAHIWWDDDKYYNPALKSRLTISKDTSKNQIFLKITNVDTAETATYYCSRIGNYGSNYWYFDVWGTGTTVTVSS
VL: QIVLTQSPAVMSASPGEKVTMTCTASSSVYYMYWYQQTPGSSPRLLIYDTSNLASGVPVRFSGSGSGTSYSLTISRMEAEDAATYYCQQWNTYPLTFGAGTKLELK
notes: mouse IgG, kappa light chain; also called clone #44; purified antibody 44
B4: antibody 43 (antibody, V domains shown)
VH: QVALKESGPGILQPSQTLSLTCSFSGFSLSTFGMGVGWIRQSSGKGLEWLANIWWDDDKYYNPALKSRLTISKDASKNQAFLKIANVDTADTATYYCARIGNYGSNYWYFDVWGTGTTVTVSS
VL: QIVLTQSPAIMSASPGERVTMTCSANSRISYMYWYQQKPGSSPRLLIYDTSNLASGVPVRFSGSGSGTSYSLTISRMEAEDAATYNCQQWSSYPLTFGAGTKLELK
notes: mouse IgG, kappa light chain; also called clone #43; purified antibody 43
B5: antibody 22 (antibody, V domains shown)
VH: QVTLKESGPGILQPSQTLSLTCSFSGFSLSTFGMGVGWIRQPSGKGLEWLAHIWWDDEKYYNSALKSRLTISKATSKNQVFLKIANVDTADTATYYCARISNYGSNYWYFNVWGTGTTVTVSS
VL: QVVLTQSPALMSASPGEKVTMTCSAGSSVSYMYWYQQKPGSSPRVLIYDTSNLASGVPARFTGSGSGTSYSLTISRMEAEDAATYYCQQWNSYPLTFGAGTKLELK
notes: mouse IgG, kappa light chain; also called clone #22; purified antibody 22
B6: antibody 34 (antibody, V domains shown)
VH: QVTLKESGPGILQPSQTLSLTCSFSGFSLSTFSLGVGWIRQSSGKGLEWLAHIWWDDEKYYNPALKSRLTISKDTSKNQVFLKIANVDAADTATYYCARAYYSKSYYALDYWGQGTSVTVSS
VL: DIQMTQSPSSLSASLGERVSLTCRASQEISGYLSWLQQKPDGTIKRLIYAASTLDSGVPKRFSGSRSGSDYSLAISSLESEDFADYYCLQYANFPFTFGSGTKLEIK
notes: mouse IgG, kappa light chain; also called clone #34; purified antibody 34
B7: antibody 48 (antibody, V domains shown)
VH: QVQLQQSGTELVRPGTSVKVSCKASGYAFTNYLIEWVKQRPGQGLEWIGVINPGSGFTKYNEKFKGKATLTADKSSSTVYMHLSSLTSEDSAVYFCARGLYRAMDYWGQGTSVTVSS
VL: DIQMTQSPASQSASLGESVTITCLASQTIATWLAWYQQKPGKSPQLLIYGATTLADGVPSRFSGGGSGTKFSFKISSLQAEDFVSYYCQQLYSTPYTFGGGTKLEIK
notes: mouse IgG, kappa light chain; also called clone #48; purified antibody 48
B8: antibody 50 (antibody, V domains shown)
VH: QVQLQQSGAELVRPGASVKVSCKASGYAFSNYLIEWVKQRPGQGLEWIGVINPGSGFTKYNEKFKGKATLTADKSSSTAYMQLSSLTSEDSAVYFCARGLYRAMDYWGQGTSVTVSS
VL: DIQMTQSPASQSASLGESVTITCLASQTIGTWLAWYQQKPGKSPQLLIYAAASLADGVPSRFSGGGSGTKFSFKISSLQAEDFVNYYCQQIYSTPYTFGGGTKLEIK
notes: mouse IgG, kappa light chain; also called clone #50; purified antibody 50
B9: antibody 16 (antibody, V domains shown)
VH: QVTLKESGPGILQPSQTLSLTCSFSGFSLSTFALGVGWIRQPSGRGLEWLAHIWWDDDKYYNPALKSRLTISKDTSKNHVFLKIANVDTADTATYYCARITTYYYGMDYWGQGTSVTVSS
VL: DIVLSQSPATLSVTPGDSVSLFCRASQSIGNHLHWYQQESHASPRLLIKYASQSISGIPSRFSGSGSGTDFTLSINSVETEDFGMYFCQQSYNWPLTFGAGTKLELK
notes: mouse IgG, kappa light chain; also called clone #16; purified antibody 16
B10: antibody 3 (antibody, V domains shown)
VH: QVTLKESGPGILQPSQTLSLTCSFSGFSLTTFAMGIGWVRQPSGKGLEWLAHIWWDGEKYNNPVLKSRLTISKDTSKNQVFLRIANVDTPDTATYYCARISSIYYIIDNWGQGTSVTVSS
VL: DIVLTQSPATLSVTPGHSVSLSCRASQSISNNLHWYQKKSHESPRLLIKYVSQSISGIPSRFSGSGSGTDFTLSINSVETEDFGMYFCQQSYNWPLTFGAGTKLELK
notes: mouse IgG, kappa light chain; also called clone #3; purified antibody 3

Target: T1, miR2-FL-WT-T7
Experiment: FACS, MEF-DKO cells, 3 µg/ml
Text: In brief, immortalized MEF-DKO-hiR2-FL-WT-T7 cells, MEF-DKO-miR2-FL-WT-T7 cells and MEF-DKO-hiR2-FL-R441K-T7, MEF-DKO-hiR2-FL-K443R-T7, MEF-DKO-hiR2-FL-V459I-T7, MEF-DKO-hiR2-FL-G481Q-T7, MEF-DKO-hiR2-FL-L488R-T7, MEF-DKO-hiR2-FL-L493I-T7, MEF-DKO-hiR2-FL-D496T-T7, MEF-DKO-hiR2-FL-H505R-T7, MEF-DKO-hiR2-FL-Q512L-T7, MEF-DKO-hiR2-FL- R513K-T7, MEF-DKO-hiR2-FL-D528N-T7, MEF-DKO-hiR2-FL-P533-T7, MEF-DKO-hiR2-FL-M534S-T7, MEF-DKO-hiR2-FL-G540S-T7, MEF-DKO-hiR2-FL-R543Q-T7, MEF-DKO-hiR2-FL-T544P-T7, MEF-DKO-hiR2-FL-G546A-T7, MEF-DKO-hiR2-FL-A547V-T7, MEF-DKO-hiR2-FL-R582Q-T7, MEF-DKO-hiR2-FL-F588L-T7, MEF-DKO-hiR2-FL-M591I-T7, MEF-DKO-hiR2-FL-E594K-T7, MEF-DKO-hiR2-FL-E626D-T7, MEF-DKO-hiR2-FL-L657I-T7, and MEF-DKO-hiR2-FL-H835Y-T7 cells were harvested with 10 mM EDTA in PBS, washed and resuspended in FACS buffer (PBS, 3% FBS, 0.05% sodium azide), and seeded in Nunc U-bottom 96-well plates (Thermo Fisher Scientific, USA) at approximately 3×10⁵ cells per well.
To pellet cells and remove supernatants, the plates were centrifuged at 1,500 rpm and 4° C. for 3 minutes. For primary staining, cells were resuspended in 100 μl per well of either FACS buffer alone (controls) or the purified antibodies 3, 5, 16, 22, 34, 42, 43, 44, 48, and 50 of the invention at 3 μg/ml FACS buffer and incubated on ice for 1 hour. Afterwards, plates were centrifuged at 1,500 rpm and 4° C. for 3 minutes and washed twice with 200 μl per well of FACS buffer. For secondary staining, cells were spun down and resuspended in 100 μl per well of PE-conjugated goat anti-mouse IgG F(ab′)2 detection fragment (Dianova, Germany) diluted 1:100 in FACS buffer. Protected from light, the cell suspensions were incubated on ice for 1 hour. Plates were then centrifuged at 1,500 rpm and 4° C. for 3 minutes and washed three times with 200 μl per well of FACS buffer. Finally, cells were resuspended in 150 μl per well of FACS buffer and analyzed using a BD Accuri™ C6 Plus flow cytometer (Becton Dickinson, Germany).

Binder | loss of binding vs wild type [%]
B1 | ≥ 95
B2 | ≥ 95
B3 | ≥ 95
B4 | ≥ 95
B5 | ≥ 95
B6 | ≥ 95
B7 | ≥ 60
B8 | ≥ 95
B9 | ≥ 95
B10 | ≥ 95
